Test results reported in patent publication US20120178682A1, “GB1 Peptidic Compounds and Methods for Making and Using the Same” (priority 2010, published 2012).
Substitutions are numbered along the chain they refer to. Names and notes keep the numbering of the source.

Target: D-VEGF
Assay: SPR affinity measurements of GB1 peptidic compounds on immobilized D-VEGF
Format: binding
Conditions: for Kd / Koff / Kon: target D-VEGF; for effect of point mutation on affinity: notes to Table 5, relative to E01
Procedure: VEGF binding compounds were expressed. Binding affinities were measured using the […] SPR system. SPR analysis was performed on a ProteOn XPR36 Protein Interaction Array System (BioRad). Chemically synthesized L-VEGF, D-VEGF and VEGF165 (Peprotech) were immobilized in 50 mM Sodium Acetate (pH 5.5) to a non-dilute EDAC/sulfo-NHS activated GLC surface on separate channels using a flow rate of […] for 5 minutes in the vertical direction. Immobilization levels were monitored to ensure immobilization of approximately 500 response units of each protein. The domains were then stabilized with PBS for 30 seconds and 0.85% H3PO4 for 18 seconds each at […]. GB1 variants were diluted in PBS plus 0.05% Tween 20 at a starting concentration of 200 nM. The binders were further diluted with PBST 2-fold in series to produce 5 concentrations of variants. A PBST blank was also included. GB1 variant injection parameters were: […], 60 seconds contact time, and 600 seconds dissociation time, in the horizontal direction. VEGF proteins were regenerated with an injection of 0.85% H3PO4 at a flow rate of […] followed by a PBST wash of 30 seconds at […] flow rate.

[1] = Table 1, E01 point mutants expressed in E. coli
[2] = Table 2, GB1-E01 double mutants

B1: E01-V31A: E01 point mutant V31A (protein)
chain: MKIEEHHHHHHHHHHGGSTYKLILNGKTLKGETTTEAVDVYDAFDVFFAYAASNFSDFDDWTYDDATKTFTVTEGGSDK
Kd (Table 1): 7.8 nM | Koff (Table 1): 0.00194 s⁻¹ | Kon [1]: 250000 M⁻¹ s⁻¹

B2: E01-A34S: E01 point mutant A34S (protein)
chain: B1 chain with A49V, A52S
Kd (Table 1): 7.8 nM | Koff (Table 1): 0.00278 s⁻¹ | Kon [1]: 356000 M⁻¹ s⁻¹

B3: E01-S35R: E01 point mutant S35R (protein)
chain: B1 chain with A49V, S53R
Kd (Table 1): 9.3 nM | Koff (Table 1): 0.00258 s⁻¹ | Kon [1]: 279000 M⁻¹ s⁻¹

B4: E01-S35E: E01 point mutant S35E (protein)
chain: B1 chain with A49V, S53E
Kd (Table 1): 7.47 nM | Koff (Table 1): 0.00304 s⁻¹ | Kon [1]: 407000 M⁻¹ s⁻¹

B5: E01-S35G: E01 point mutant S35G (protein)
chain: B1 chain with A49V, S53G
Kd (Table 1): 8.79 nM | Koff (Table 1): 0.00348 s⁻¹ | Kon [1]: 396000 M⁻¹ s⁻¹

B6: E01-S38K: E01 point mutant S38K (protein)
chain: B1 chain with A49V, S56K
Kd (Table 1): 13.7 nM | Koff (Table 1): 0.0028 s⁻¹ | Kon [1]: 204000 M⁻¹ s⁻¹

B7: E01-S38G: E01 point mutant S38G (protein)
chain: B1 chain with A49V, S56G
Kd (Table 1): 9 nM | Koff (Table 1): 0.00387 s⁻¹ | Kon [1]: 428000 M⁻¹ s⁻¹

B8: E01-D39F: E01 point mutant D39F; scaffold for double mutants (protein)
chain: B1 chain with A49V, D57F
Kd (Table 1): 4.23 nM | Koff (Table 1): 0.00213 s⁻¹ | Kon [1]: 504000 M⁻¹ s⁻¹ | Kd [2]: 3.48 nM | Koff [2]: 0.00132 s⁻¹ | Kon [2]: 380000 M⁻¹ s⁻¹ | effect of point mutation on affinity: ^3 D39F point mutant increased affinity

B9: E01-F40I: E01 point mutant F40I (protein)
chain: B1 chain with A49V, F58I
Kd (Table 1): 11.1 nM | Koff (Table 1): 0.00441 s⁻¹ | Kon [1]: 398000 M⁻¹ s⁻¹

B10: E01-D41V: E01 point mutant D41V (protein)
chain: B1 chain with A49V, D59V
Kd (Table 1): 67.5 nM | Koff (Table 1): 0.0333 s⁻¹ | Kon [1]: 493000 M⁻¹ s⁻¹

B11: E01-V22L: E01 point mutant V22L, His-tagged, expressed in E. coli (protein)
chain: B1 chain with V40L, A49V
Kd (Table 1): 5.8 nM | Koff (Table 1): 0.00239 s⁻¹ | Kon [1]: 411000 M⁻¹ s⁻¹ | effect of point mutation on affinity: ^2 V22L point mutant increased affinity;

B12: E01-D24G: E01 point mutant D24G (protein)
chain: B1 chain with D42G, A49V
Kd (Table 1): 14.9 nM | Koff (Table 1): 0.00247 s⁻¹ | Kon [1]: 166000 M⁻¹ s⁻¹

B13: E01-D27E: E01 point mutant D27E (protein)
chain: B1 chain with D45E, A49V
Kd (Table 1): 9.6 nM | Koff (Table 1): 0.00333 s⁻¹ | Kon [1]: 347000 M⁻¹ s⁻¹

B14: E01-D39F/V31A: E01 double mutant D39F/V31A (protein)
chain: B1 chain with D57F
Kd [2]: 2.99 nM | Koff [2]: 0.00167 s⁻¹ | Kon [2]: 558000 M⁻¹ s⁻¹

B15: E01-D39F/A34S: E01 double mutant D39F/A34S (protein)
chain: B1 chain with A49V, A52S, D57F
Kd [2]: 4.49 nM | Koff [2]: 0.00174 s⁻¹ | Kon [2]: 387000 M⁻¹ s⁻¹

B16: E01-D39F/S35R: E01 double mutant D39F/S35R (protein)
chain: B1 chain with A49V, S53R, D57F
Kd [2]: 5.35 nM | Koff [2]: 0.00183 s⁻¹ | Kon [2]: 341000 M⁻¹ s⁻¹

B17: E01-D39F/S35E: E01 double mutant D39F/S35E (protein)
chain: B1 chain with A49V, S53E, D57F
Kd [2]: 4.52 nM | Koff [2]: 0.00205 s⁻¹ | Kon [2]: 454000 M⁻¹ s⁻¹

B18: E01-D39F/S35G: E01 double mutant D39F/S35G (protein)
chain: B1 chain with A49V, S53G, D57F
Kd [2]: 5.4 nM | Koff [2]: 0.00193 s⁻¹ | Kon [2]: 358000 M⁻¹ s⁻¹

B19: E01-D39F/S38G: E01 double mutant D39F/S38G (protein)
chain: B1 chain with A49V, S56G, D57F
Kd [2]: 2.83 nM | Koff [2]: 0.00131 s⁻¹ | Kon [2]: 463000 M⁻¹ s⁻¹

B20: E01-D39F/F40I: E01 double mutant D39F/F40I (protein)
chain: B1 chain with A49V, D57F, F58I
Kd [2]: 2.29 nM | Koff [2]: 0.00138 s⁻¹ | Kon [2]: 602000 M⁻¹ s⁻¹

B21: E01-D39F/V22L: E01 double mutant D39F/V22L (protein)
chain: B1 chain with V40L, A49V, D57F
Kd [2]: 1.14 nM | Koff [2]: 0.00082 s⁻¹ | Kon [2]: 719000 M⁻¹ s⁻¹

B22: E01-D39F/D27E: E01 double mutant D39F/D27E (protein)
chain: B1 chain with D45E, A49V, D57F
Kd [2]: 3.1 nM | Koff [2]: 0.00158 s⁻¹ | Kon [2]: 511000 M⁻¹ s⁻¹
